# T1: estrogen receptor α (ERα) (Homo sapiens, UniProt P03372)
# T1 construct: made in house
# T1 sequence (P03372 1-595): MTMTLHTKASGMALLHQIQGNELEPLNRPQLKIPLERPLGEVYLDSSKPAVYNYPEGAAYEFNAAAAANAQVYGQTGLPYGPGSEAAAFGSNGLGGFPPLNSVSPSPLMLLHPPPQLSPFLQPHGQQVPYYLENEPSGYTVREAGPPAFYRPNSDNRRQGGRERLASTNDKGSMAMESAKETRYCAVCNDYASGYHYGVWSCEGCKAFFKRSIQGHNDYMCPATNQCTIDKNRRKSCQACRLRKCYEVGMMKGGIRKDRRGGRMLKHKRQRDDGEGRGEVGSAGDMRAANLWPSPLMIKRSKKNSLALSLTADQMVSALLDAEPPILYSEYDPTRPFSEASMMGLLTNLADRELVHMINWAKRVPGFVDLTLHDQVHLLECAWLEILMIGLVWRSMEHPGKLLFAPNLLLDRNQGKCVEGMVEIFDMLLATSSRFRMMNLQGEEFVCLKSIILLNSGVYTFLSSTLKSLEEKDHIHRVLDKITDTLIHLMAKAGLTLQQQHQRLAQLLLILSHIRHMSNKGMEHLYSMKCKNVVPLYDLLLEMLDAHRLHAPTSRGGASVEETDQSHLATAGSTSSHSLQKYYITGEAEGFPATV
# T2: Progesterone Receptor β (PRβ) (Homo sapiens, UniProt P06401)
# T2 sequence (P06401 1-933): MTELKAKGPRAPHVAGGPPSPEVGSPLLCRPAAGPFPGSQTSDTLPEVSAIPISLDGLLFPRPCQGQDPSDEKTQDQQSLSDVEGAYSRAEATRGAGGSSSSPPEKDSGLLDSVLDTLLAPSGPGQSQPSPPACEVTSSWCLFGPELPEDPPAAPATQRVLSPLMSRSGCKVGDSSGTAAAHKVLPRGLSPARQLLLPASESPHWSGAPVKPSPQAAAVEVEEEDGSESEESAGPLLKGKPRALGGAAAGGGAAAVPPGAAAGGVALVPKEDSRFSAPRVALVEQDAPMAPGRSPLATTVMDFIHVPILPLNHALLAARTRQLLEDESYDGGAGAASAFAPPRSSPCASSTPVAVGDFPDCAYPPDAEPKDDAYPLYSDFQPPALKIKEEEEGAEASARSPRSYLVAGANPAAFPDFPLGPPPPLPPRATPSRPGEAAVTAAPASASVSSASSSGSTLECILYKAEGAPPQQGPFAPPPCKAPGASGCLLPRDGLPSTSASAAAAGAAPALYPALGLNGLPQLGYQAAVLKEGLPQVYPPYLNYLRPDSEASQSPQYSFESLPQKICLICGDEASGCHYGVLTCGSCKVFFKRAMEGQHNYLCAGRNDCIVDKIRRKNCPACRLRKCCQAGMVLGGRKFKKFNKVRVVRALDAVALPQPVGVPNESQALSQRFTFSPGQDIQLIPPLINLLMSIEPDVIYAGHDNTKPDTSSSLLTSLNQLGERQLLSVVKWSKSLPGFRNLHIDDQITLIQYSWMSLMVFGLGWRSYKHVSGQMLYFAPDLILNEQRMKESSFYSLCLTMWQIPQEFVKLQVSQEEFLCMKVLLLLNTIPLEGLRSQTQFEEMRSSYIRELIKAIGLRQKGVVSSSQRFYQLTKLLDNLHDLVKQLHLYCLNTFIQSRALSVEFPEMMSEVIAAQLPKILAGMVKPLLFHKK
# B1: ERCoA3: 79 amino acid ER coactivator protein (SEQ. ID. NO. 2); used as GST fusion or expressed from vector (protein, listed as Homo sapiens)
# chain: MCGRPRRVSAGCGFADAHWTGLWTGLGEGQEGGIGPEGQASPTPDCASRWPRSASRWPWSAGLTVRDRPQLGELCMGRG
# Legend:
# ERCoA3 = assay: Northern hybridization for ERCoA3 expression in MCF-7 cells; format: cell-based, human; conditions: 10^-8 M, 24 h
# Description: FIG. 8. ERCoA3 is expressed in cells that respond to tamoxifen as an agonist. (A) Total RNA was isolated from untreated parental MCF-7 cells (−), and cells treated for 24 h with 10^−8 M estradiol (E2) or 10^−8 M trans-hydroxytamoxifen (TOT), and tamoxifen resistant cells (TOT^R). (B) Total RNA was collected from untreated Hec cells and cells treated for 24 h with 10^−8 M estradiol (E2) or 10^−8 M trans-hydroxytamoxifen. Equal amounts (20 μg) of total RNA were separated by electrophoresis. Blots were probed with the random primer labeled ERCoA3 cDNA and 36B4 cDNA (to control for RNA loading).
# It was determined whether there was increased expression of ERCoA3 in cells that were resistant to SERMs, specifically TOT. RNA was isolated from MCF-7 cells and also from tamoxifen-resistant (TOT^R) MCF-7 cells. Northern hybridization was performed using an ERCoA3 probe. These experiments indicated increased expression of ERCoA3 in TOT^R MCF-7 cells when compared to parental MCF-7 cells (FIG. 8A). […] Expression of ERCoA3 was also examined in another human cell line, human endometrium cancer cell line, HEC-1B.
# [1] = biological target: T1, estrogen receptor α (ERα); assay: GST-ERCoA3 protein-protein interaction (pull-down) assay with [35S]-ERα; format: binding; conditions: vehicle, 10^-6 M E2, TOT or ICI
# Description: (§1) FIG. 4. ERCoA3 preferentially interacts with antagonist-bound ERα and PRβ. In vitro translated and [^35S]-methionine-labeled (A) Estrogen Receptor α (ERα) or (B) Progesterone Receptor β (PRβ) were incubated with GST alone or GST-ERCoA3 bound to Sepharose in the presence of vehicle, 10^−6 M Estradiol (E2), 10^−6 M trans-hydroxytamoxifen (TOT), 10^−6 M ICI 182,780 (ICI), 10^−6 M R5020, or 10^−6 M RU-486 as indicated. Bound protein was eluted with excess glutathione and analyzed by 12.5% SDS-polyacrylamide gel electrophoresis. The autoradiograph is representative of 3 separate experiments. Abbreviations: E2, 17-β estradiol; TOT, transhydroxytamoxifen; ICI, ICI182,780 (a pure ER antagonist); R5020, a synthetic PR agonist, and RU-486, a partial agonist of PRβ.
# A protein-protein interaction assay was used in which the affinity matrix (i.e., bound to a column) was a glutathione-S-transferase (GST) fusion protein wherein GST was fused to ERCoA3. In vitro transcribed and translated [^35S]-ERα was retained by the GST-ERCoA3 affinity column preferentially in the presence of antiestrogens, trans-hydroxytamoxifen (TOT) and ICI182,780 (ICI) when compared to estradiol (E2) (FIG. 4A). ERα was not retained on the GST protein column without ERCoA3 (or GST alone).
# [2] = biological target: T2, Progesterone Receptor β (PRβ); assay: MMTV-CAT reporter assay in CHO cells transfected with PRβ; format: cell-based; set-up: expressed in transfected cells; host or cells: CHO cells; conditions: CHO cells cotransfected with ERCoA3 vs cmv5 control; unliganded, 10^-8 M R5020 or RU-486, 24 h
# Description: FIG. 7. ERCoA3 enhances partial agonist activity of RU-486. CHO cells were transfected with expression vectors for Progesterone Receptor β (PRβ) or reporter construct MMTV-CAT. The cells were cotransfected with cmv5 control expression vector or expression vector for ERCoA3 as indicated. The cells were also transfected with a β-galactosidase internal control reporter to correct for transfection efficiency. Cells were then treated for 24 h with 10^−8 M R5020 or RU-486. Values are the means ±S.E. from three separate experiments.
# (§2) Somewhat different findings were made with Progesterone Receptor β (PRβ).
# ERα = assay: (ERE)2-TATA-CAT reporter assay in CHO cells transfected with ERα; format: cell-based; conditions: CHO cells cotransfected with ERCoA3 expression vector vs cmv5 control; estrogen, TOT or ICI, 24 h
# Description: FIG. 5. ERCoA3 enhances partial agonist activity of antiestrogens. CHO cells were transfected with expression vectors for ERα and reporter construct (ERE)2-TATA-CAT. The cells were cotransfected with cmv5 control expression vector or expression vector for ERCoA3, as indicated. The cells were also transfected with a β-galactosidase internal control reporter to correct for transfection efficiency. Cells were then treated for 24 h with control vehicle or increasing concentrations of estradiol (E2), trans-hydroxytamoxifen (TOT) or ICI 182,780, as indicated. Values are the means ± S.E. from three separate experiments.
# The ability of ERCoA3 to affect the response that a ligand has on ER was then tested. CHO cells were transfected with a CAT reporter construct wherein transcription of the CAT gene was regulated by a estrogen-responsive element, or with both a CAT reporter construct and an expression vector for ERCoA3. The cells were grown in either estrogen, TOT or ICI, and CAT activity was assayed.
# [3] = test system: ERα transcriptional activity; assay: (ERE)2-PS2-CAT reporter assay in MCF-7 cells; format: cell-based, human; conditions: MCF-7 cells cotransfected with ERCoA3 vs cmv5 control; 10^-8 M E2 plus increasing TOT or ICI, 24 h
# Description: FIG. 6. ERCoA3 attenuates the antiestrogenic effects of TOT and ICI on ERα transcriptional activity. MCF-7 cells were transfected with (ERE)2-PS2-CAT reporter construct. The cells were cotransfected with cmv5 control expression vector or expression vector for ERCoA3, as indicated. The cells were also transfected with a β-galactosidase internal control reporter to correct for transfection efficiency. Cells were then treated for 24 h with 10^−8 M estradiol (E2) and increasing concentration of trans-hydroxytamoxifen (TOT; panel A) or ICI 182,780 (ICI; panel B). Values are the means ±S.E. from three separate experiments.
# Another very similar study examined the effect of ERCoA3 on the ability of TOT (FIG. 6A) and ICI (FIG. 6B) to block activation of ER. MCF-7 cells were transfected with a CAT reporter construct wherein transcription of the CAT gene was regulated by a estrogen-responsive element, or with both a CAT reporter construct and an expression vector for ERCoA3. The cells were then grown in TOT or ICI and CAT activity was assayed.
# [4] = biological target: T2, Progesterone Receptor β (PRβ); assay: GST-ERCoA3 protein-protein interaction (pull-down) assay with [35S]-PRβ; format: binding; conditions: vehicle, 10^-6 M R5020 or RU-486
# Description: as §1, §2
Molecule,ERCoA3 expression (Northern) (ERCoA3),retention of [35S]-ERα on GST-ERCoA3 affinity column [1],PRβ transcriptional activity [2],CAT activity (activation of ER) (ERα),activation of ER (CAT activity) in presence of TOT or ICI [3],interaction of ERCoA3 with PRβ [4]
"C[C@]12CC[C@@H]3c4ccc(O)cc4CC[C@H]3[C@@H]1CC[C@@H]2O [E2, 17-β-estradiol]",Neither E2 nor TOT affected ERCoA3 expression,–,–,–,–,–
trans-hydroxytamoxifen [TOT],Neither E2 nor TOT affected ERCoA3 expression,–,–,–,–,–
B1,–,binds ER but binds ER better if ER are already bound to a partial agonist or antagonist,enhanced the activity of both unliganded and RU-486-bound PRβ,increased CAT activity,increases activation of ER,"interacted with both unliganded and antiprogestin- (RU-486, a partial agonist) bound PRβ"
